Data: US20110165265A1, “TRAIL VARIANTS FOR TREATING CANCER” (FUNDACIÓ GENÒMICA (CRG), priority 2007, published 2011)

T1: DcR1 (Homo sapiens, UniProt O14798)
T1 construct: soluble, recombinant DcR1-Ig (sDcR1) and DcR2-Ig (sDcR2); purchased R&D Systems
T1 sequence (O14798 26-236 limits assumed): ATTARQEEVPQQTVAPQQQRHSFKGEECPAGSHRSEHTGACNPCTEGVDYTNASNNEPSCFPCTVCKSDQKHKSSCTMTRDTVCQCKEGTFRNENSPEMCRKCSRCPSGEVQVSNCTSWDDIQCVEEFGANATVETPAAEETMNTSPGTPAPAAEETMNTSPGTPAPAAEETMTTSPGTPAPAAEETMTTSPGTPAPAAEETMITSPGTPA

T2: DcR2 (Homo sapiens, UniProt Q9UBN6)
T2 construct: soluble, recombinant DcR1-Ig (sDcR1) and DcR2-Ig (sDcR2); purchased R&D Systems
T2 sequence (Q9UBN6 56-211 limits assumed): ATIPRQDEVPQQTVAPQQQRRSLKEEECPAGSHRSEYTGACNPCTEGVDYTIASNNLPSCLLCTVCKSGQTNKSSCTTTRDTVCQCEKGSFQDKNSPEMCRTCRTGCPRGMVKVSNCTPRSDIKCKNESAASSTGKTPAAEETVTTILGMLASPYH


Assays:
SW948 cells = assay: Cell survival / sensitivity of SW948; format: cell-based
Colo205 cells [1] = assay: Cell survival / sensitivity of Colo205; format: cell-based; conditions: Colo205
Experimental: (B) Effect of increasing concentrations of Aspirin on cell viability. (C) Effect of increasing concentrations of 5-Flurouracil on cell viability. (D) Combination therapy with 5 mM Aspirin pre-incubated for 24 h lead to further decreases in cell viability in cells treated with both TRAIL and two of the DR5 mutants. (E) 30 minute incubation of DR5 mutants, were sufficient decrease cell viability which was further augmented when cells were pre-incubated for 24 h with Aspirin. The shorter incubation period lead to a decrease potency of TRAIL alone or in combination with Aspirin. […] (G) 30 min incubation of the DR5 mutant was sufficient to decrease cell viability which was not enhanced by 5-Flurouracil, and once again the decease potency of TRAIL is seen. Proteins are indicated as follows: TRAIL stands for rhTRAIL WT; D269H stands for rhTRAIL carrying mutation D269H; E195R stands for rhTRAIL carrying mutations D269H and E195R; and M1 stands for rhTRAIL carrying mutations D269H, E194I and I196S.
TRAIL-induced cell death as a function of concentration was measured with the MTS assay.

Caski cells = assay: Cell survival / sensitivity of Caski; format: cell-based
HeLa cells = assay: Cell survival / sensitivity of HeLa; format: cell-based
Experimental: (B) Effect of increasing of Bortezomib on cell viability. Hela cells appear to tolerate higher concentration of Bortezomib compared to Caski and SIHA cells (C) Combination therapy with 10 nM Bortezomib incubated for 24 h lead to further decreases in cell viability in cells treated with both TRAIL and two of the DR5 mutants (D) Radiation therapy in combination with TRAIL or the DR5 mutants further decrease cell viability in HELA cells. The DR5 mutant show decrease cell viability at lower concentration of ligand compared to TRAIL.

LoVo cells = assay: Cell survival / sensitivity of LoVo; format: cell-based
Text: C) Effect of increasing concentration of 5-Flurouracil on Lovo cells.

Colo205 cells [2] = assay: MTT cytotoxicity and DR4/DR5 neutralizing antibodies in Colo205; format: cell-based, human; conditions: Colo205, at a lower concentration (FIG. 8C)
Experimental: To assess the biological activity related to DR5 binding, various cancer cells were used. Colo205 colon carcinoma cells and ML-1 […] myeloid leukemia cells express all four TRAIL receptors on the cell surface, as shown by using FACS analysis (FIG. 7), and are sensitive to TRAIL-induced apoptosis. To test the involvement of DR4 versus DR5 in TRAIL-induced cell death, Colo205 cells were treated with neutralizing anti-DR4 or anti-DR5 antibody for 1 h before the addition of TRAIL. […] In contrast, the DR4 pathway is the major mediator of TRAIL-induced apoptosis in ML-1 cells (FIG. 8A.) To examine whether the DR5-specific TRAIL variants induce cell death in Colo205 cells by way of the DR5 receptor, 1 μg/ml neutralizing anti-DR4 or -DR5 antibodies were administered 1 h before ligand treatment.
(§1) Colo205 and ML-1 cells were then treated with increasing concentrations of TRAIL or the DR5-specific variants D269H, D269HE195R, and D269H/T214R, and their cytotoxic potential was measured with a 3-(4,5-dimethylthiazol-2-yl)-2,5-diphenyl tetrazolium bromide (MTT) assay.

A2780 cells [3] = assay: Annexin V apoptosis assay in A2780; format: cell-based, human; conditions: A2780 ovarian cancer cells
ML-1 cells = assay: Cytotoxicity in ML-1 cells; format: cell-based
Experimental: as §1

A2780 cells [4] = assay: MTT cytotoxicity in A2780 (Example 6); format: cell-based; conditions: A2780 (FIG. 8E)
DR4 = biological target: T3, DR4 (Homo sapiens, UniProt O00220); conditions: earlier work referred to; cited from earlier work
T3 construct: the more commonly used dimeric TRAIL-receptor-IgG Fc chimeric constructs
T3 sequence (O00220 24-239 limits assumed): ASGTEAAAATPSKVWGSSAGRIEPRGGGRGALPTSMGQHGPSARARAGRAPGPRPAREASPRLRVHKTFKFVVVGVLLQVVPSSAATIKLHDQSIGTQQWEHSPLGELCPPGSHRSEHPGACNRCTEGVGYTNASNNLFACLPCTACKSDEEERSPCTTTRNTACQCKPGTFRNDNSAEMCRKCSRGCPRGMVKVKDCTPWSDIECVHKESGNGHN

Human dermal fibroblasts = assay: MTT viability of human dermal fibroblasts; format: cell-based; conditions: 50-500 ng/ml, 24 h
Experimental: (§2) Human dermal fibroblasts were grown in low glucose DMEM (Sigma) supplemented with 10% fetal calf serum, 50 U/ml penicillin and […] streptomycin; human umbilical vein endothelial cells (HUVEC, PromoCell) were cultured in Endothelial Cell Growth Medium with SupplementMix (PromoCell). Fibroblasts and HUVEC cells were seeded at 1.3×10^5 cells/ml 24 h before treatment with increasing concentrations of TRAIL and DR5-selective variants, D269H and D269HE195R (50-500 ng/ml) for 24 h and cell viability was measured using MTT assay, wherein 200 μg/ml MTT (3-(4,5-dimethylthiazo1-2-yl)-2,5-diphenyl-tetrazolium bromide) was added to control and treated cells and incubated for 3 h at 37° C. The reaction was stopped and the purple formazan precipitate formed was dissolved using dimethyl sulfoxide (DMSO) and the colour intensity was measured at 550 nm on a Wallac multilabel counter. The control value corresponding to untreated cells was taken as 100% and the viability of treated samples was expressed as a percentage of the control. (FIG. 15).

DR5 = biological target: T4, DR5 (Homo sapiens, UniProt O14763); conditions: earlier work referred to; cited from earlier work
T4 construct: Effect of soluble recombinant DR5-Ig (sDR5) on apoptosis induction

Colo205 cells [5] = assay: Colo205 apoptosis after pre-incubation of ligand with soluble receptor-Ig; format: cell-based, human; conditions: 10 ng/ml ligand
Experimental: (A) Effect of soluble recombinant DcR1-Ig (sDcR1) on apoptosis induction by TRAIL and DR5-selective variants. […] All graphs are representatives of two independent repeats. (D) Neutralizing antibodies against DcR1 and DcR2 can augment wtTRAIL- but not DR5-variant induced cell death. […] Induction of apoptosis was measured 3 h post-treatment using Annexin V assay. […] The graphs show the average±SEM of three independent experiments.
Induction of cell death was assessed by Annexin V assay 3 h after treatment (FIG. 14), as described above. […] (FIG. 14C). This confirms that the observed differences in blocking efficacy are due to reduced ability of the decoy receptors to bind and inhibit D269H and D269HE195R.

[6] = tested on: human umbilical vein endothelial cells (HUVEC); assay: Viability of HUVEC; format: cell-based; conditions: 50-500 ng/ml, 24 h, MTT
Experimental: as §2

DcR1 = biological target: T1, DcR1; assay: SPR receptor binding assay, immobilized DcR1-Ig; conditions: 0.1-250 nM ligand
Experimental: (§3) The response data (in response units) as a function of TRAIL concentration were fitted using a four parameter equation to give an apparent pre-steady state affinity constant.
(§4) Binding experiments were performed at 37° C. using a surface plasmon resonance-based biosensor (Biacore 3000, Biacore AB, Uppsala, Sweden) as previously described^10. In short, DcR1-Ig and DcR2-Ig receptor chimeras (R&D Systems) were captured at a 35 μl/min flow rate using a protein A (Sigma) modified CM5 sensor chip (Biacore). Receptor chimeras were captured at a level of ˜500-800 response units (RU). […] Binding of ligands to the receptors was monitored in real-time. Between injections the protein A sensor surface was regenerated using a 30s pulse of 0.1 M glycine 0.5 M NaCl pH 3. Due to the very slow dissociation of the TRAIL-receptor complex, only pre-steady state binding data could be obtained. In order to obtain data that represent proper high-affinity complex formation, the response at each concentration was recorded 30 sec after the end of the injection. The response data (in response units) as a function of TRAIL concentration were fitted using a four parameter equation to give an apparent pre-steady state affinity constant.
(§5) Affinity of the ligands was assessed by measuring receptor binding in a concentration range of 0.1-250 nM.

DcR2 = biological target: T2, DcR2; assay: SPR receptor binding assay, immobilized DcR2-Ig; conditions: 0.1-250 nM ligand
Experimental: as §3, §4, §5

Row | Molecule | cell viability, single agent (SW948 cells) | cell viability, single agent (Colo205 cells [1]) | cell viability, single agent (Caski cells) | cell viability, single agent (HeLa cells) | cell viability, single agent (LoVo cells) | increase of apoptosis rate compared to wtTRAIL (Colo205 cells [2]) [fold] | increase in apoptosis / efficiency compared to wtTRAIL (A2780 cells [3]) | cell death induction (ML-1 cells) | cytotoxic activity compared with wild-type TRAIL (A2780 cells [4]) | binding to DR4 (DR4) | cell viability (Human dermal fibroblasts) | affinity for the DR5 receptor (DR5) | effect of pre-incubation with sDcR2 on apoptosis induction (Colo205 cells [5]) | effect of pre-incubation with sDcR1 on pro-apoptotic activity (Colo205 cells [5]; sDcR1 up to 2 μg/ml) | cell viability [6] | binding towards DcR1, reduction compared to wtTRAIL (DcR1) | binding toward DcR2 compared to wtTRAIL (DcR2)
1 | M1: rhTRAIL carrying mutations D269H, E194I and I196S (protein, UniProt P50591 1-281, looked up, variant D269H E194I I196S) Tumor necrosis factor ligand …: MAMMEVQGGPSLGQTCVLIVIFTVLLQSLCVAVTYVYFTNELKQMQDKYSKSGIACFLKEDDSYWDPNDEESMNSPCWQVKWQLRQLVRKMILRTSEETISTVQEKQQNISPLVRERGPQRVAAHITGTRGRSNTLSSPNSKNEKALGRKINSWESSRSGHSFLSNLHLRNGELVIHEKGFYYIYSQTYFRFQIESKENTKNDKQMVQYIYKYTSYPDPILLMKSARNSCWSKDAEYGLYSIYQGGIFELKENDRIFVSVTNEHLIDMHHEASFFGAFLVG | decreased cell viability | significantly less cell viability than TRAIL | comparable | comparable | equal decrease in cell viability |  |  |  |  |  |  |  |  |  |  |  | 
2 | D269HT214R: TRAIL variant containing mutations D269H and T214R (protein, UniProt P50591 1-281, looked up, variant D269H T214R) Tumor necrosis factor ligand …: MAMMEVQGGPSLGQTCVLIVIFTVLLQSLCVAVTYVYFTNELKQMQDKYSKSGIACFLKEDDSYWDPNDEESMNSPCWQVKWQLRQLVRKMILRTSEETISTVQEKQQNISPLVRERGPQRVAAHITGTRGRSNTLSSPNSKNEKALGRKINSWESSRSGHSFLSNLHLRNGELVIHEKGFYYIYSQTYFRFQEEIKENTKNDKQMVQYIYKYRSYPDPILLMKSARNSCWSKDAEYGLYSIYQGGIFELKENDRIFVSVTNEHLIDMHHEASFFGAFLVG |  |  |  |  |  | 1.5 | 2 fold | only TRAIL was able to induce cell death | significantly increased |  |  |  |  |  |  |  | 
3 | D269H: rhTRAIL carrying mutation D269H; DR5-selective TRAIL variant (protein) MVRERGPQRVAAHITGTRGRSNTLSSPNSKNEKALGRKINSWESSRSGHSFLSNLHLRNGELVIHEKGFYYIYSQTYFRFQEEIKENTKNDKQMVQYIYKYTSYPDPILLMKSARNSCWSKDAEYGLYSIYQGGIFELKENDRIFVSVTNEHLIDMHHEASFFGAFLVG | decreased cell viability | significantly less cell viability than TRAIL | comparable | comparable | equal decrease in cell viability |  | 3-4 fold | only TRAIL was able to induce cell death | significantly increased | highly reduced | did not result in a decrease in cell viability | increased | only at a two fold higher concentration than for wtTRAIL | failed to reduce | did not result in a decrease in cell viability | approximately 20 fold | reduced
